Measurements as given in publication PMC9959518, “Influence of the Drug Position on Bioactivity in Angiopep-2—Daunomycin Conjugates” (International Journal of Molecular Sciences, 2023).

Key:
[1] = system: U87 human glioblastoma cells; assay type: cell-based; conditions: MTT test, 0.05–50 µM, treated 24 h (method: overnight), washed, further 48 h (method: 72 h) at 37 °C, two independent experiments with four parallel measurements
Method: The in vitro cytostatic effect of the synthesized peptide (1) and daunomycin-peptide conjugates (2–8) was investigated on U87 human glioblastoma cells. The cells were treated with the peptide and conjugates at different concentrations (0.05–50 μM) for 24 h, and after a washing step, the cells were incubated for another […] at 37 °C. The cytostatic effect of the compounds was determined using the MTT test.
U87 human glioblastoma cell line was cultured in DMEM supplemented with 10% FBS, 2 mM L-glutamine, penicillin–streptomycin antibiotic mixture (50 IU/mL and 50 μg/mL, respectively), 1 mM sodium pyruvate, and 1% non-essential amino acid mixture. The cell culture was maintained at 37 °C in a humidified atmosphere with 5% CO2. The U87 cell line was a generous gift of Dr. József Tóvári (Department of Experimental Pharmacology, National Institute of Oncology, Budapest, Hungary).
For determining the cytostatic effect of the conjugates, U87 cells were grown to confluency and then divided into 96-well tissue culture plates with an initial cell number of 5.0 × 10^3 cells/well. After 24 h incubation at 37 °C, the cells were treated with the compounds overnight in the concentration range of 0.05–50 μM in 200 μL final volume containing 1.0 v/v% DMSO, whereas control cells were treated only with serum-free medium or with 1.0 v/v% DMSO at the same conditions. After the incubation, cells were washed twice with serum-free medium, then the cells were cultured for an additional 72 h in 10% serum-containing medium at 37 °C. Following that, MTT solution (at c = 0.37 mg/mL final concentration) was added to each well. The respiratory chain [32] and other electron transport systems reduced MTT and thereby formed non-water-soluble violet formazan crystals within the cells. The amount of these crystals can be determined by spectrophotometry and serves as an estimate for the number of mitochondria in addition to the number of living cells in the well [35]. After 3 h of incubation with MTT, the cells were centrifuged for 5 min at 2000 rpm and the supernatant was removed. The obtained formazan crystals were dissolved in DMSO (100 µL), and the optical density (OD) of the samples was measured at λ = 540 nm and 620 nm, respectively, using ELISA Reader (iEMS Reader, Labsystems, Finland). The OD620 values were subtracted from the OD540 values. The percent of cytostasis was calculated with the following equation:(1) Cytostatic effect (%)=1−ODtreated/ODcontrol×100 where the ODtreated and ODcontrol values correspond to the optical densities of the treated and the control wells, respectively. In each case, two independent experiments were carried out with four parallel measurements. Cytostasis was plotted as a function of concentration, and the half-maximal inhibitory concentration was calculated based on a sigmoid curve fitted on the data points using Microcal™ Origin 2018 software. IC50 represents the concentration of a compound that is required for 50% inhibition, expressed in micromolar units.

[2] = Degradation in rat liver lysosomal homogenate followed by HPLC-MS; assay type: in vitro ADME
Method: The conjugates were treated with lysosomal homogenate for 5 min, 1 h, 6 h, 24 h, and 72 h, and the degradation was followed by HPLC-MS. Control studies investigating conjugates in buffer (without lysosomal homogenate) were also performed, and for these, all conjugates were stable. […] At 6 h, it was the main drug-containing metabolite, and at 72 h, only this Dau-containing fragment could be detected. This time-dependent pattern was also observed in the case of conjugate 2, where Dau was attached to the side chain of Lys in position 15, and the formed smallest metabolite was H-Lys(Dau=Aoa)-OH. […] It is likely that, in this case, a large steric hindrance occurred, and the enzymes were not able to access the peptide bonds around ^10Lys. This observation might explain the discrepancy between the efficient cellular uptake and the lower anticancer activity of this conjugate.
A stock solution with a concentration of 2.5 μg/μL was prepared from the conjugates in distilled water, and this was diluted 100× with 0.2 M sodium acetate buffer (pH 5.03). The rat liver lysosomal homogenate (16.6 μg/μL) was diluted 20× with the same buffer, and then the two solutions were mixed in a 1:1 (protein:peptide, m/m) ratio. In each case, control measurements were also performed, in which buffer was added to the conjugates instead of the lysosomal homogenate. The solutions were stirred at 600 rpm at 37 °C in a thermostat (ThermoMixer, Eppendorf AG, Hamburg, Germany), and after 5 min, 1 h, 6 h, 24 h, and 72 h, 50 μL samples were taken. Each reaction was quenched with 5 μL formic acid and the samples were stored frozen until analysis.
The HPLC-MS analysis of the samples was performed with a Dionex 3000 HPLC-Q Exactive Focus hybrid quadrupole-orbitrap mass spectrometer (Thermo Fisher Scientific, Bremen, Germany). For separation, a Supelco Ascentis C18 column (3 μm, 100 Å, 150 × 2.1 mm; Merck, Darmstadt, Germany) and gradient elution (0 min 2% B, 1 min 2% B, 17 min 90% B; A eluent: 0.1% formic acid/distilled water, eluent B: 0.1% formic acid/acetonitrile + distilled water (80:20, v/v%), flow rate 0.2 mL/min, 40 °C) was used, and high-resolution mass spectra were recorded in the range of 200–1800 m/z. The data were analyzed using the Xcalibur program (Thermo Fisher Scientific).

**Q.** What does the source list for COc1cccc2c1C(=O)c1c(O)c3c(c(O)c1C2=O)C[C@@](O)(C(C)=NOCC(=O)N[C@H](C(=O)N[C@@H](Cc1ccccc1)C(=O)N[C@@H](Cc1ccccc1)C(=O)N[C@@H](Cc1ccc(O)cc1)C(=O)NCC(=O)NCC(=O)N[C@@H](CO)C(=O)N[C@@H](CCCNC(=N)N)C(=O)NCC(=O)N[C@@H](CCCCN)C(=O)N[C@@H](CCCNC(=N)N)C(=O)N[C@@H](CC(N)=O)C(=O)N[C@@H](CC(N)=O)C(=O)N[C@@H](Cc1ccccc1)C(=O)N[C@@H](CCCCN)C(=O)N[C@H](C(=O)N[C@@H](CCC(=O)O)C(=O)N[C@@H](CCC(=O)O)C(=O)N[C@@H](Cc1ccc(O)cc1)C(=O)O)[C@@H](C)O)[C@@H](C)O)C[C@@H]3O[C@H]1C[C@H](N)[C@H](O)[C@H](C)O1 [compound 3, Dau=Aoa-TFFYGGSRGKRNNFKTEEY-OH]?
**A.** IC50 [1]: 10.9 ± 2.8 µM; time of appearance of the Dau=Aoa-Thr-OH fragment ([2]; 1:1 protein:peptide m/m, 0.2 M sodium acetate pH 5.03, 37 °C): ≤ 1 h

**Q.** With COc1cccc2c1C(=O)c1c(O)c3c(c(O)c1C2=O)C[C@@](O)(C(C)=NOCC(=O)NCCCC[C@H](NC(=O)CNC(=O)[C@H](CCCNC(=N)N)NC(=O)[C@H](CO)NC(=O)CNC(=O)CNC(=O)[C@H](Cc1ccc(O)cc1)NC(=O)[C@H](Cc1ccccc1)NC(=O)[C@H](Cc1ccccc1)NC(=O)[C@@H](N)[C@@H](C)O)C(=O)N[C@@H](CCCNC(=N)N)C(=O)N[C@@H](CC(N)=O)C(=O)N[C@@H](CC(N)=O)C(=O)N[C@@H](Cc1ccccc1)C(=O)N[C@@H](CCCCN)C(=O)N[C@H](C(=O)N[C@@H](CCC(=O)O)C(=O)N[C@@H](CCC(=O)O)C(=O)N[C@@H](Cc1ccc(O)cc1)C(=O)O)[C@@H](C)O)C[C@@H]3O[C@H]1C[C@H](N)[C@H](O)[C@H](C)O1 [compound 4, H-TFFYGGSRGK(Dau=Aoa)RNNFKTEEY-OH] as the molecule, how does the IC50 [1] read?
**A.** Its IC50 is 24 ± 5.9 µM.

**Q.** And the “smallest metabolite H-Lys(Dau=Aoa)-OH at 1 h” value ([2]; 1:1 protein:peptide m/m, 0.2 M sodium acetate pH 5.03, 37 °C, 1 h)?
**A.** The value was “not detectable”.

**Q.** And the “release of the smallest metabolite H-Lys(Dau=Aoa)-OH (in words)” value ([2]; pH 5.03, 37 °C, up to 72 h)?
**A.** Its value is “not efficiently released”.

**Q.** With COc1cccc2c1C(=O)c1c(O)c3c(c(O)c1C2=O)C[C@@](O)(C(C)=NOCC(=O)NCCCC[C@H](NC(=O)CNC(=O)[C@H](CCCNC(=N)N)NC(=O)[C@H](CO)NC(=O)CNC(=O)CNC(=O)[C@H](Cc1ccc(O)cc1)NC(=O)[C@H](Cc1ccccc1)NC(=O)[C@H](Cc1ccccc1)NC(=O)[C@@H](NC(=O)CON=C(C)[C@]1(O)Cc2c(O)c4c(c(O)c2[C@@H](O[C@H]2C[C@H](N)[C@H](O)[C@H](C)O2)C1)C(=O)c1c(OC)cccc1C4=O)[C@@H](C)O)C(=O)N[C@@H](CCCNC(=N)N)C(=O)N[C@@H](CC(N)=O)C(=O)N[C@@H](CC(N)=O)C(=O)N[C@@H](Cc1ccccc1)C(=O)N[C@@H](CCCCNC(=O)CON=C(C)[C@]1(O)Cc2c(O)c4c(c(O)c2[C@@H](O[C@H]2C[C@H](N)[C@H](O)[C@H](C)O2)C1)C(=O)c1c(OC)cccc1C4=O)C(=O)N[C@H](C(=O)N[C@@H](CCC(=O)O)C(=O)N[C@@H](CCC(=O)O)C(=O)N[C@@H](Cc1ccc(O)cc1)C(=O)O)[C@@H](C)O)C[C@@H]3O[C@H]1C[C@H](N)[C@H](O)[C@H](C)O1 [compound 8, Dau=Aoa-TFFYGGSRGK(Dau=Aoa)RNNFK(Dau=Aoa)TEEY-OH] as the molecule, how does the IC50 [1] read?
**A.** Its IC50 is 23.6 ± 6.3 µM.

**Q.** Which results are given for COc1cccc2c1C(=O)c1c(O)c3c(c(O)c1C2=O)C[C@@](O)(C(C)=NOCC(=O)N[C@H](C(=O)N[C@@H](C)C(=O)NCCCC[C@H](NC(=O)CNC(=O)[C@H](CCCNC(=N)N)NC(=O)[C@H](CO)NC(=O)CNC(=O)CNC(=O)[C@H](Cc1ccc(O)cc1)NC(=O)[C@H](Cc1ccccc1)NC(=O)[C@H](Cc1ccccc1)NC(=O)[C@@H](N)[C@@H](C)O)C(=O)N[C@@H](CCCNC(=N)N)C(=O)N[C@@H](CC(N)=O)C(=O)N[C@@H](CC(N)=O)C(=O)N[C@@H](Cc1ccccc1)C(=O)N[C@@H](CCCCN)C(=O)N[C@H](C(=O)N[C@@H](CCC(=O)O)C(=O)N[C@@H](CCC(=O)O)C(=O)N[C@@H](Cc1ccc(O)cc1)C(=O)O)[C@@H](C)O)C(C)C)C[C@@H]3O[C@H]1C[C@H](N)[C@H](O)[C@H](C)O1 [compound 10, H-TFFYGGSRGK(Dau=Aoa-VA)RNNFKTEEY-OH]?
**A.** IC50 [1]: > 50 µM; amount of H-K(Dau=Aoa-VA)-OH formed ([2]; pH 5.03, 37 °C): very small amounts; amount of expected metabolite Dau=Aoa-Val-OH produced after 72 h ([2]; pH 5.03, 37 °C, 72 h): negligible amounts

**Q.** For COc1cccc2c1C(=O)c1c(O)c3c(c(O)c1C2=O)C[C@@](O)(C(C)=NOCC(=O)N[C@H](C(=O)N[C@@H](C)C(=O)NCC(=O)NCC(=O)NCCCC[C@H](NC(=O)CNC(=O)[C@H](CCCNC(=N)N)NC(=O)[C@H](CO)NC(=O)CNC(=O)CNC(=O)[C@H](Cc1ccc(O)cc1)NC(=O)[C@H](Cc1ccccc1)NC(=O)[C@H](Cc1ccccc1)NC(=O)[C@@H](N)[C@@H](C)O)C(=O)N[C@@H](CCCNC(=N)N)C(=O)N[C@@H](CC(N)=O)C(=O)N[C@@H](CC(N)=O)C(=O)N[C@@H](Cc1ccccc1)C(=O)N[C@@H](CCCCN)C(=O)N[C@H](C(=O)N[C@@H](CCC(=O)O)C(=O)N[C@@H](CCC(=O)O)C(=O)N[C@@H](Cc1ccc(O)cc1)C(=O)O)[C@@H](C)O)C(C)C)C[C@@H]3O[C@H]1C[C@H](N)[C@H](O)[C@H](C)O1 [compound 11, H-TFFYGGSRGK(Dau=Aoa-VAGG)RNNFKTEEY-OH], which IC50 [1] is on record?
**A.** The IC50 was 20.2 ± 3 µM.

**Q.** What about the “time of appearance of the Dau=Aoa-Val-Ala-OH fragment” value ([2]; pH 5.03, 37 °C) of the same molecule?
**A.** The value was 1 h.

**Q.** And the “amount of Dau=Aoa-Val-OH detected after 6 h” value ([2]; pH 5.03, 37 °C, 6 h)?
**A.** The value was “high amounts”.
